Source: patent US20060106200A1

Biological target: full length, processed caspase-9 (residues 1-416) (UniProt P55211)
Assay: gel filtration chromatography of equi-molar Apaf-1 (1-591) and caspase-9

Sequence of full length, processed caspase-9 (residues 1-416) (P55211 whole entry, form in doubt, the tested form may be a part): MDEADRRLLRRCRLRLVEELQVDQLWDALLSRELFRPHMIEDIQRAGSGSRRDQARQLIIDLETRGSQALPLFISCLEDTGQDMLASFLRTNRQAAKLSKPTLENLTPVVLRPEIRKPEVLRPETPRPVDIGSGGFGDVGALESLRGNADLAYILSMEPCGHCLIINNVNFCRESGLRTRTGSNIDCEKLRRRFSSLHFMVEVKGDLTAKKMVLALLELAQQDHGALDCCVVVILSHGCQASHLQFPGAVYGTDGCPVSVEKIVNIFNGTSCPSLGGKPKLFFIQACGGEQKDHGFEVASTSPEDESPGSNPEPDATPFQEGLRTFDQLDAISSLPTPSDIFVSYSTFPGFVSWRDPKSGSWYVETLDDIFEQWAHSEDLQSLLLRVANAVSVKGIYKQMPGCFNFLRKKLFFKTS

apparent molecular mass of the complex peak on gel filtration: 130 kilodaltons
Substance: soluble Apaf-1 fragment (residues 1-591 of full length Apaf-1) (from UniProt O14727 1-591)
